The source of these data is paper PMC7895871 (Protein & Cell, 2020).

The data set concerns the molecule itself. The data set can be described thus: cryo-EM structure; human MCU-EMRE-MICU1-MICU2 supercomplex co-expressed in HEK 293F, pulled down by C-terminally Strep-tagged EMRE; Titan Krios, K2; overall map 3.3–3.7 Å.

B1: MCU (mitochondrial calcium uniporter), subunit of the human MCU-EMRE-MICU1-MICU2 supercomplex (MEMMS) (natural protein)
chain: DDVTVVYQNGLPVISVRLPSRRERCQFTLKPISDSVGVFLRQLQEEDRGIDRVAIYSPDGVRVAASTGIDLLLLDDFKLVINDLTYHVRPPKRDLLSHENAATLNDVKTLVQQLYTTLCIEQHQLNKERELIERLEDLKEQLAPLEKVRIEISRKAEKRTTLVLWGGLAYMATQFGILARLTWWEYSWDIMEPVTYFITYGSAMAMYAYFVMTRQEYVYPEARDRQYLLFFHKGAKKSRFDLEKYNQLKDAIAQAEMDLKRLRDPLQVHLPLRQIG
notes: MCU, human; pore-forming subunit with NTD, CCD and TMD; Four MCU subunits form one channel (tetramer); the supercomplex holds two such tetramers joined at the NTDs; Construct limits and any tags are in the supplementary Methods; source: HEK 293F cells transfected by BacMam viruses, co-expressed; complex pulled down by the C-terminally Strep-tagged EMRE
Broadly, the stoichiometry N is the number of molecules, sites or subunits per partner or assembly. As for B1, the “stoichiometry N” value was determined as 4.
